# Test results reported in patent US10221225B2, “Peptides and combination of peptides and scaffolds thereof for use in immunotherapy against colorectal carcinoma (CRC) and other cancers” (immatics biotechnologies GmbH, priority 2015, dated 2019).
# Target: HLA-A*02:01 (Homo sapiens, UniProt P04439, D140Y/D185E/D98H/E176V/E277Q/G131W/G231S/I119V/I121R/I166T/I218V/L300P/L318F/N151K/N90K/P208A/P217A/Q86G/Q94H/R138H/R169H/T345S)
# Assay: MHC binding assay (UV-ligand exchange, beta2m ELISA, peptide exchange yield)
# Details: MHC class I binding score; binding to HLA-A*02:01 ranged by peptide exchange yield (UV-ligand exchange, β2m ELISA)
# Text: Candidate peptides for T cell based therapies according to the present invention were further tested for their MHC binding capacity (affinity). The individual peptide-MHC complexes were produced by UV-ligand exchange, where a UV-sensitive peptide is cleaved upon UV-irradiation, and exchanged with the peptide of interest as analyzed. Only peptide candidates that can effectively bind and stabilize the peptide-receptive MHC molecules prevent dissociation of the MHC complexes. To determine the yield of the exchange reaction, an ELISA was performed based on the detection of the light chain (β2m) of stabilized MHC complexes. The assay was performed as generally described in Rodenko et al. (Rodenko et al., 2006).
# 96 well MAXISorp plates (NUNC) were coated over night with 2 ug/ml streptavidin in PBS at room temperature, washed 4× and blocked for 1 h at 37° C. in 2% BSA containing blocking buffer. Refolded HLA-A*02:01/MLA-001 monomers served as standards, covering the range of 15-500 ng/ml. Peptide-MHC monomers of the UV-exchange reaction were diluted 100 fold in blocking buffer. Samples were incubated for 1 h at 37° C., washed four times, incubated with 2 ug/ml HRP conjugated anti-β2m for 1 h at 37° C., washed again and detected with TMB solution that is stopped with […]. Absorption was measured at 450 nm. Candidate peptides that show a high exchange yield (preferably higher than 50%, most preferred higher than 75%) are generally preferred for a generation and production of antibodies or fragments thereof, and/or T cell receptors or fragments thereof, as they show sufficient avidity to the MHC molecules and prevent dissociation of the MHC complexes.
row,Peptide exchange,Substance
1,″+++″ (≥50 = +++),4 (RLAELTVDEFL; listed as Homo sapiens) [compound 4]
2,″+++″ (≥50 = +++),6 (FLAELPGSLSL; listed as Homo sapiens) [compound 6]
3,″+++″ (≥50 = +++),8 (ALMLQGVDLL; listed as Homo sapiens) [compound 8]
4,″++″ (≥20% = ++),14 (FLDKPEDVLL; listed as Homo sapiens) [compound 14]
5,″+++″ (≥50 = +++),15 (LQLDKEFQL; listed as Homo sapiens) [compound 15]
6,″+++″ (≥50 = +++),16 (VLVDQSWVL; listed as Homo sapiens) [compound 16]
7,″+++″ (≥50 = +++),20 (YLKDGDVML; listed as Homo sapiens) [compound 20]
8,″+++″ (≥50 = +++),23 (FLDANGHFV; listed as Homo sapiens) [compound 23]
9,″+++″ (≥50 = +++),24 (VLDGVLMEL; listed as Homo sapiens) [compound 24]
10,″++++″ (≥75% = ++++),25 (SLADRLIGV; listed as Homo sapiens) [compound 25]
11,″++″ (≥20% = ++),26 (GLASKENFSNVSL; listed as Homo sapiens) [compound 26]
12,″++″ (≥20% = ++),27 (LLADEDSSYL; listed as Homo sapiens) [compound 27]
13,″++++″ (≥75% = ++++),28 (ALTEIQEFI; listed as Homo sapiens) [compound 28]
14,″+++″ (≥50 = +++),29 (QMLDVAIRV; listed as Homo sapiens) [compound 29]
15,″+″ (≥10% = +),30 (GLSSAYGGL; listed as Homo sapiens) [compound 30]
16,″+++″ (≥50 = +++),33 (ALWEKNTHL; listed as Homo sapiens) [compound 33]
17,″+++″ (≥50 = +++),34 (ILLEKSVSV; listed as Homo sapiens) [compound 34]
18,″+++″ (≥50 = +++),35 (KLLDLTVRI; listed as Homo sapiens) [compound 35]
19,″+++″ (≥50 = +++),36 (GLLESPSIFNFTA; listed as Homo sapiens) [compound 36]
20,″++″ (≥20% = ++),40 (ALSNVIHKV; listed as Homo sapiens) [compound 40]
21,″++″ (≥20% = ++),41 (ILDDSFKLL; listed as Homo sapiens) [compound 41]
22,″++″ (≥20% = ++),43 (TLDAAQPRV; listed as Homo sapiens) [compound 43]
23,″+++″ (≥50 = +++),44 (SLESKLTSV; listed as Homo sapiens) [compound 44]
24,″+++″ (≥50 = +++),45 (ALAELLHGA; listed as Homo sapiens) [compound 45]
25,″+++″ (≥50 = +++),46 (GLDDRYSLV; listed as Homo sapiens) [compound 46]

row,Peptide exchange,Substance
1,″++″ (≥20% = ++),48 (FLDASDPAL; listed as Homo sapiens) [compound 48]
2,″+++″ (≥50 = +++),50 (TLMAEMHVV; listed as Homo sapiens) [compound 50]
3,″++″ (≥20% = ++),51 (QVWEIQHTV; listed as Homo sapiens) [compound 51]
4,″++″ (≥20% = ++),52 (ALDSSNSMQTI; listed as Homo sapiens) [compound 52]
5,″+++″ (≥50 = +++),53 (FLLGSEIKL; listed as Homo sapiens) [compound 53]
6,″+++″ (≥50 = +++),54 (ALLNGEYLLAA; listed as Homo sapiens) [compound 54]
7,″++″ (≥20% = ++),56 (VLFTDEGVPKFL; listed as Homo sapiens) [compound 56]
8,″+++″ (≥50 = +++),57 (NLLEKENYL; listed as Homo sapiens) [compound 57]
9,″++″ (≥20% = ++),58 (AMADKMDMSL; listed as Homo sapiens) [compound 58]
10,″++″ (≥20% = ++),60 (VLDEDEPRFL; listed as Homo sapiens) [compound 60]
11,″+++″ (≥50 = +++),61 (KLLKLFQGV; listed as Homo sapiens) [compound 61]
12,″++″ (≥20% = ++),62 (YLAPENGYL; listed as Homo sapiens) [compound 62]
13,″++″ (≥20% = ++),63 (KLFSILSTV; listed as Homo sapiens) [compound 63]
14,″++″ (≥20% = ++),66 (GLDDGPDFL; listed as Homo sapiens) [compound 66]
15,″+++″ (≥50 = +++),67 (SLNDLEKDVMLL; listed as Homo sapiens) [compound 67]
16,″+++″ (≥50 = +++),68 (SILQFVHMV; listed as Homo sapiens) [compound 68]
17,″++″ (≥20% = ++),69 (GMLNEAEGKAIKL; listed as Homo sapiens) [compound 69]
18,″+++″ (≥50 = +++),70 (MISELEVRL; listed as Homo sapiens) [compound 70]
19,″+++″ (≥50 = +++),71 (RLWTEIPTAI; listed as Homo sapiens) [compound 71]
20,″+++″ (≥50 = +++),72 (YLLDYPNNLL; listed as Homo sapiens) [compound 72]
21,″+++″ (≥50 = +++),73 (YLFDIAVSM; listed as Homo sapiens) [compound 73]
22,″+++″ (≥50 = +++),74 (YLMGFLHAV; listed as Homo sapiens) [compound 74]
23,″++″ (≥20% = ++),75 (EMIENIQSV; listed as Homo sapiens) [compound 75]
24,″+++″ (≥50 = +++),76 (YLIGEKQHYL; listed as Homo sapiens) [compound 76]
25,″++″ (≥20% = ++),77 (SLLKRDFGA; listed as Homo sapiens) [compound 77]

row,Peptide exchange,Substance
1,″++″ (≥20% = ++),78 (ALDPELLLL; listed as Homo sapiens) [compound 78]
2,″++″ (≥20% = ++),79 (SLAADQLLKL; listed as Homo sapiens) [compound 79]
3,″++″ (≥20% = ++),80 (QVDEVVDIMRV; listed as Homo sapiens) [compound 80]
4,″+++″ (≥50 = +++),81 (ALLSQQTHL; listed as Homo sapiens) [compound 81]
5,″++″ (≥20% = ++),82 (QLYEEPDTKL; listed as Homo sapiens) [compound 82]
6,″+++″ (≥50 = +++),83 (LTIEDGIFEV; listed as Homo sapiens) [compound 83]
7,″+++″ (≥50 = +++),84 (SMVEDITGLRL; listed as Homo sapiens) [compound 84]
8,″++″ (≥20% = ++),85 (ILHDINSDGVL; listed as Homo sapiens) [compound 85]
9,″++″ (≥20% = ++),86 (KVFPGKISV; listed as Homo sapiens) [compound 86]
10,″+++″ (≥50 = +++),87 (LLFDAPDLRL; listed as Homo sapiens) [compound 87]
11,″++++″ (≥75% = ++++),88 (KLDIKVETV; listed as Homo sapiens) [compound 88]
12,″+++″ (≥50 = +++),89 (SLIEYEFRV; listed as Homo sapiens) [compound 89]
13,″+++″ (≥50 = +++),90 (GLLKPGLNVVL; listed as Homo sapiens) [compound 90]
14,″+++″ (≥50 = +++),91 (TVDVATPSV; listed as Homo sapiens) [compound 91]
15,″+++″ (≥50 = +++),92 (WIDDTSAFV; listed as Homo sapiens) [compound 92]
16,″++++″ (≥75% = ++++),93 (SLQELRLLL; listed as Homo sapiens) [compound 93]
17,″+++″ (≥50 = +++),94 (KSMDIVLTV; listed as Homo sapiens) [compound 94]
18,″++++″ (≥75% = ++++),95 (AILDAHIEV; listed as Homo sapiens) [compound 95]
19,″++″ (≥20% = ++),96 (KLYSRLVYV; listed as Homo sapiens) [compound 96]
20,″++″ (≥20% = ++),97 (ALWWGVVTV; listed as Homo sapiens) [compound 97]
21,″++″ (≥20% = ++),98 (AMNGKSFSV; listed as Homo sapiens) [compound 98]
22,″+++″ (≥50 = +++),99 (KLLEVDLDTV; listed as Homo sapiens) [compound 99]
23,″+++″ (≥50 = +++),100 (SLDDFLATA; listed as Homo sapiens) [compound 100]
